# Numbered stars: 1 amine (or outer) side, 2 acyl side, 3 side chain; on linkers, the order of the positions; unused ones are H or OH. Bridge positions count the residues as written; N and C are the ends. Side chains are listed from the residue outwards. Ends that are not written are not given here. * marks the point of attachment. C20 diacid = O=C(O)CCCCCCCCCCCCCCCCCCC(=O)*; C18 diacid = O=C(O)CCCCCCCCCCCCCCCCC(=O)*; C16 diacid = O=C(O)CCCCCCCCCCCCCCC(=O)*; γGlu = O=C(O)[C@H](CCC(=O)[*:2])N[*:1]
# T1: human calcitonin receptor (human, UniProt P30988 25-474)
# T1 sequence (looked up): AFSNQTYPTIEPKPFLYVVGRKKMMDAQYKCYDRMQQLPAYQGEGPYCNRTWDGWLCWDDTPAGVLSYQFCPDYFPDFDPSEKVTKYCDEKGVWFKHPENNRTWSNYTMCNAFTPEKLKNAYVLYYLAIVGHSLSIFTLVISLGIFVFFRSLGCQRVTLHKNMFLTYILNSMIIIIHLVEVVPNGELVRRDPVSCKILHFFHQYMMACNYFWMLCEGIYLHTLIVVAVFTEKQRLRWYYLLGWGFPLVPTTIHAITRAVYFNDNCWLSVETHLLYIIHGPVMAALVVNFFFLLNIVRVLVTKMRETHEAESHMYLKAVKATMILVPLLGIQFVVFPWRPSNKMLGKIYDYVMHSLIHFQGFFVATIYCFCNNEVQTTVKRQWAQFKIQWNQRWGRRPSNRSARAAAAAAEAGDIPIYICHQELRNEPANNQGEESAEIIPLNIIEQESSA
# B1: N^ε1-[(4S)-4-carboxy-4-(15-carboxypentadecanoylamino)butanoyl]-[Arg17,Pro21,Pro27,His34]-h-amylin (peptide)
# peptide: K([γGlu-C16 diacid])CNTATCATQRLANFLRHSSPNFGAIPSSTNVGHNTY-NH2
# modifications: disulfide 2-7; N-terminus assumed
# SMILES: CC[C@H](C)[C@H](NC(=O)[C@H](C)NC(=O)CNC(=O)[C@H](Cc1ccccc1)NC(=O)[C@H](CC(N)=O)NC(=O)[C@@H]1CCCN1C(=O)[C@H](CO)NC(=O)[C@H](CO)NC(=O)[C@H](Cc1c[nH]cn1)NC(=O)[C@H](CCCNC(=N)N)NC(=O)[C@H](CC(C)C)NC(=O)[C@H](Cc1ccccc1)NC(=O)[C@H](CC(N)=O)NC(=O)[C@H](C)NC(=O)[C@H](CC(C)C)NC(=O)[C@H](CCCNC(=N)N)NC(=O)[C@H](CCC(N)=O)NC(=O)[C@@H](NC(=O)[C@H](C)NC(=O)[C@@H]1CSSC[C@H](NC(=O)[C@@H](N)CCCCNC(=O)CC[C@H](NC(=O)CCCCCCCCCCCCCCC(=O)O)C(=O)O)C(=O)N[C@@H](CC(N)=O)C(=O)N[C@@H]([C@@H](C)O)C(=O)N[C@@H](C)C(=O)N[C@@H]([C@@H](C)O)C(=O)N1)[C@@H](C)O)C(=O)N1CCC[C@H]1C(=O)N[C@@H](CO)C(=O)N[C@@H](CO)C(=O)N[C@H](C(=O)N[C@@H](CC(N)=O)C(=O)N[C@H](C(=O)NCC(=O)N[C@@H](Cc1c[nH]cn1)C(=O)N[C@@H](CC(N)=O)C(=O)N[C@H](C(=O)N[C@@H](Cc1ccc(O)cc1)C(N)=O)[C@@H](C)O)C(C)C)[C@@H](C)O
# B2: N^ε1-[(4S)-4-carboxy-4-(19-carboxynonadecanoylamino)butanoyl]-[Glu14,Arg17,Pro21,Pro27,His35]-h-amylin (peptide)
# peptide: K([γGlu-C20 diacid])CNTATCATQRLAEFLRHSSPNFGAIPSSTNVGSHTY-NH2
# modifications: disulfide 2-7; N-terminus assumed
# SMILES: CC[C@H](C)[C@H](NC(=O)[C@H](C)NC(=O)CNC(=O)[C@H](Cc1ccccc1)NC(=O)[C@H](CC(N)=O)NC(=O)[C@@H]1CCCN1C(=O)[C@H](CO)NC(=O)[C@H](CO)NC(=O)[C@H](Cc1c[nH]cn1)NC(=O)[C@H](CCCNC(=N)N)NC(=O)[C@H](CC(C)C)NC(=O)[C@H](Cc1ccccc1)NC(=O)[C@H](CCC(=O)O)NC(=O)[C@H](C)NC(=O)[C@H](CC(C)C)NC(=O)[C@H](CCCNC(=N)N)NC(=O)[C@H](CCC(N)=O)NC(=O)[C@@H](NC(=O)[C@H](C)NC(=O)[C@@H]1CSSC[C@H](NC(=O)[C@@H](N)CCCCNC(=O)CC[C@H](NC(=O)CCCCCCCCCCCCCCCCCCC(=O)O)C(=O)O)C(=O)N[C@@H](CC(N)=O)C(=O)N[C@@H]([C@@H](C)O)C(=O)N[C@@H](C)C(=O)N[C@@H]([C@@H](C)O)C(=O)N1)[C@@H](C)O)C(=O)N1CCC[C@H]1C(=O)N[C@@H](CO)C(=O)N[C@@H](CO)C(=O)N[C@H](C(=O)N[C@@H](CC(N)=O)C(=O)N[C@H](C(=O)NCC(=O)N[C@@H](CO)C(=O)N[C@@H](Cc1c[nH]cn1)C(=O)N[C@H](C(=O)N[C@@H](Cc1ccc(O)cc1)C(N)=O)[C@@H](C)O)C(C)C)[C@@H](C)O
# B3: N^ε1-[(4S)-4-carboxy-4-(17-carboxyheptadecanoylamino)butanoyl]-[Arg17,Pro21,Pro27,His34]-h-amylin (peptide)
# peptide: K([γGlu-C18 diacid])CNTATCATQRLANFLRHSSPNFGAIPSSTNVGHNTY-NH2
# modifications: disulfide 2-7; N-terminus assumed
# SMILES: CC[C@H](C)[C@H](NC(=O)[C@H](C)NC(=O)CNC(=O)[C@H](Cc1ccccc1)NC(=O)[C@H](CC(N)=O)NC(=O)[C@@H]1CCCN1C(=O)[C@H](CO)NC(=O)[C@H](CO)NC(=O)[C@H](Cc1c[nH]cn1)NC(=O)[C@H](CCCNC(=N)N)NC(=O)[C@H](CC(C)C)NC(=O)[C@H](Cc1ccccc1)NC(=O)[C@H](CC(N)=O)NC(=O)[C@H](C)NC(=O)[C@H](CC(C)C)NC(=O)[C@H](CCCNC(=N)N)NC(=O)[C@H](CCC(N)=O)NC(=O)[C@@H](NC(=O)[C@H](C)NC(=O)[C@@H]1CSSC[C@H](NC(=O)[C@@H](N)CCCCNC(=O)CC[C@H](NC(=O)CCCCCCCCCCCCCCCCC(=O)O)C(=O)O)C(=O)N[C@@H](CC(N)=O)C(=O)N[C@@H]([C@@H](C)O)C(=O)N[C@@H](C)C(=O)N[C@@H]([C@@H](C)O)C(=O)N1)[C@@H](C)O)C(=O)N1CCC[C@H]1C(=O)N[C@@H](CO)C(=O)N[C@@H](CO)C(=O)N[C@H](C(=O)N[C@@H](CC(N)=O)C(=O)N[C@H](C(=O)NCC(=O)N[C@@H](Cc1c[nH]cn1)C(=O)N[C@@H](CC(N)=O)C(=O)N[C@H](C(=O)N[C@@H](Cc1ccc(O)cc1)C(N)=O)[C@@H](C)O)C(C)C)[C@@H](C)O
# B4: N^ε1-[(4S)-4-carboxy-4-(19-carboxynonadecanoylamino)butanoyl]-[Asp14,Arg17,Pro21,Pro27,Pro34,Glu35]-h-amylin (peptide)
# peptide: K([γGlu-C20 diacid])CNTATCATQRLADFLRHSSPNFGAIPSSTNVGPETY-NH2
# modifications: disulfide 2-7; N-terminus assumed
# SMILES: CC[C@H](C)[C@H](NC(=O)[C@H](C)NC(=O)CNC(=O)[C@H](Cc1ccccc1)NC(=O)[C@H](CC(N)=O)NC(=O)[C@@H]1CCCN1C(=O)[C@H](CO)NC(=O)[C@H](CO)NC(=O)[C@H](Cc1c[nH]cn1)NC(=O)[C@H](CCCNC(=N)N)NC(=O)[C@H](CC(C)C)NC(=O)[C@H](Cc1ccccc1)NC(=O)[C@H](CC(=O)O)NC(=O)[C@H](C)NC(=O)[C@H](CC(C)C)NC(=O)[C@H](CCCNC(=N)N)NC(=O)[C@H](CCC(N)=O)NC(=O)[C@@H](NC(=O)[C@H](C)NC(=O)[C@@H]1CSSC[C@H](NC(=O)[C@@H](N)CCCCNC(=O)CC[C@H](NC(=O)CCCCCCCCCCCCCCCCCCC(=O)O)C(=O)O)C(=O)N[C@@H](CC(N)=O)C(=O)N[C@@H]([C@@H](C)O)C(=O)N[C@@H](C)C(=O)N[C@@H]([C@@H](C)O)C(=O)N1)[C@@H](C)O)C(=O)N1CCC[C@H]1C(=O)N[C@@H](CO)C(=O)N[C@@H](CO)C(=O)N[C@H](C(=O)N[C@@H](CC(N)=O)C(=O)N[C@H](C(=O)NCC(=O)N1CCC[C@H]1C(=O)N[C@@H](CCC(=O)O)C(=O)N[C@H](C(=O)N[C@@H](Cc1ccc(O)cc1)C(N)=O)[C@@H](C)O)C(C)C)[C@@H](C)O
# B5: N^ε1-[(4S)-4-carboxy-4-(19-carboxynonadecanoylamino)butanoyl]-[Glu14,Arg17,Pro21,Pro27,His34,Glu35]-h-amylin (peptide)
# peptide: K([γGlu-C20 diacid])CNTATCATQRLAEFLRHSSPNFGAIPSSTNVGHETY-NH2
# modifications: disulfide 2-7; N-terminus assumed
# SMILES: CC[C@H](C)[C@H](NC(=O)[C@H](C)NC(=O)CNC(=O)[C@H](Cc1ccccc1)NC(=O)[C@H](CC(N)=O)NC(=O)[C@@H]1CCCN1C(=O)[C@H](CO)NC(=O)[C@H](CO)NC(=O)[C@H](Cc1c[nH]cn1)NC(=O)[C@H](CCCNC(=N)N)NC(=O)[C@H](CC(C)C)NC(=O)[C@H](Cc1ccccc1)NC(=O)[C@H](CCC(=O)O)NC(=O)[C@H](C)NC(=O)[C@H](CC(C)C)NC(=O)[C@H](CCCNC(=N)N)NC(=O)[C@H](CCC(N)=O)NC(=O)[C@@H](NC(=O)[C@H](C)NC(=O)[C@@H]1CSSC[C@H](NC(=O)[C@@H](N)CCCCNC(=O)CC[C@H](NC(=O)CCCCCCCCCCCCCCCCCCC(=O)O)C(=O)O)C(=O)N[C@@H](CC(N)=O)C(=O)N[C@@H]([C@@H](C)O)C(=O)N[C@@H](C)C(=O)N[C@@H]([C@@H](C)O)C(=O)N1)[C@@H](C)O)C(=O)N1CCC[C@H]1C(=O)N[C@@H](CO)C(=O)N[C@@H](CO)C(=O)N[C@H](C(=O)N[C@@H](CC(N)=O)C(=O)N[C@H](C(=O)NCC(=O)N[C@@H](Cc1c[nH]cn1)C(=O)N[C@@H](CCC(=O)O)C(=O)N[C@H](C(=O)N[C@@H](Cc1ccc(O)cc1)C(N)=O)[C@@H](C)O)C(C)C)[C@@H](C)O
# notes: also called compound 107
# B6: N^ε1-[(4S)-4-carboxy-4-(19-carboxynonadecanoylamino)butanoyl]-[Ala14,Arg17,Pro21,Pro27,His34]-h-amylin (peptide)
# peptide: K([γGlu-C20 diacid])CNTATCATQRLAAFLRHSSPNFGAIPSSTNVGHNTY-NH2
# modifications: disulfide 2-7; N-terminus assumed
# SMILES: CC[C@H](C)[C@H](NC(=O)[C@H](C)NC(=O)CNC(=O)[C@H](Cc1ccccc1)NC(=O)[C@H](CC(N)=O)NC(=O)[C@@H]1CCCN1C(=O)[C@H](CO)NC(=O)[C@H](CO)NC(=O)[C@H](Cc1c[nH]cn1)NC(=O)[C@H](CCCNC(=N)N)NC(=O)[C@H](CC(C)C)NC(=O)[C@H](Cc1ccccc1)NC(=O)[C@H](C)NC(=O)[C@H](C)NC(=O)[C@H](CC(C)C)NC(=O)[C@H](CCCNC(=N)N)NC(=O)[C@H](CCC(N)=O)NC(=O)[C@@H](NC(=O)[C@H](C)NC(=O)[C@@H]1CSSC[C@H](NC(=O)[C@@H](N)CCCCNC(=O)CC[C@H](NC(=O)CCCCCCCCCCCCCCCCCCC(=O)O)C(=O)O)C(=O)N[C@@H](CC(N)=O)C(=O)N[C@@H]([C@@H](C)O)C(=O)N[C@@H](C)C(=O)N[C@@H]([C@@H](C)O)C(=O)N1)[C@@H](C)O)C(=O)N1CCC[C@H]1C(=O)N[C@@H](CO)C(=O)N[C@@H](CO)C(=O)N[C@H](C(=O)N[C@@H](CC(N)=O)C(=O)N[C@H](C(=O)NCC(=O)N[C@@H](Cc1c[nH]cn1)C(=O)N[C@@H](CC(N)=O)C(=O)N[C@H](C(=O)N[C@@H](Cc1ccc(O)cc1)C(N)=O)[C@@H](C)O)C(C)C)[C@@H](C)O
# notes: also called compound 93
# Target: T1, human calcitonin receptor
# Experiment: cell-based or functional assay
row,hCTR funct. EC50 (pM),Binder
1,2210,B1
2,5580,B2
3,1450,K([γGlu-C20 diacid])CNTATCATQRLAEFLRHSSPNFGAIPSSTNVGPHTY-NH2 (disulfide 2-7)
4,5850,B3
5,1120,B4
6,2540,B5
7,1140,B6
